The values that follow come from paper PMC5234717 (Journal of Lipid Research, 2016).

For data set [1], the target named is T1, S1PL2025 (Burkholderia pseudomallei, UniProt Q63IP4).
T1 construct: gene BPSS2025

Data set [2] has as its target T1, S1PL2025. This is another data set of the same source.
For the next data set, the system named is CCCCCCCCCCCCC/C=C/C=O. The data set can be described thus: purified protein. The settings on record: pH 7.5; 37.0 °C.

T1 sequence (Q63IP4 35-507 limits assumed): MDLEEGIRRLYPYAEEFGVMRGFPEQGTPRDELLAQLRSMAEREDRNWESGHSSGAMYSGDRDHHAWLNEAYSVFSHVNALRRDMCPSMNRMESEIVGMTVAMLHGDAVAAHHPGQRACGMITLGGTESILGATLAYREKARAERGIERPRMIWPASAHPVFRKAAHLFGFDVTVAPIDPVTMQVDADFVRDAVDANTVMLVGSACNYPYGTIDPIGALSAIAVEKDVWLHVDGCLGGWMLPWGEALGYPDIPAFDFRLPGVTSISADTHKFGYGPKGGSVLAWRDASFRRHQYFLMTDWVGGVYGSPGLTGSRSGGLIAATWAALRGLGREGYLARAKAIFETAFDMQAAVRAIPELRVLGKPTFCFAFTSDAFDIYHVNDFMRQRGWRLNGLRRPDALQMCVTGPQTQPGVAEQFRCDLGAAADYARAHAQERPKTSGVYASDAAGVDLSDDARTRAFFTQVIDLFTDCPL

As for `NCCOP(=O)(O)O` [PE], the “UV-vis spectroscopy of PLP” value at S1PL2025 [1] is “UV-vis analysis of the binding of S1P and PE to the S1PL2025 enzyme”.

With `Cc1ncc(COP(=O)(O)O)c(C=O)c1O` [PLP], at S1PL2025 [2], the UV-vis spectroscopy result is reported as “A similar PLP binding spectrum was observed with S1PL2025”.

Broadly, the Km is the concentration of substrate that gives half-maximal velocity. Broadly, the Vmax is the top rate of the reaction or transport when substrate is in excess. In general, kcat/Km refers to the turnover number divided by the Michaelis constant. Regarding FALDH (Homo sapiens), in the data set with CCCCCCCCCCCCC/C=C/C=O, the Km is 19.4 ± 3.2 µM, the Vmax was found to be 0.315 µmol/min/mg and the catalytic efficiency (kcat/Km) stood at 11300 M⁻¹ s⁻¹.
